According to article PMC8969154, “Deglutarylation of glutaryl-CoA dehydrogenase by deacylating enzyme SIRT5 promotes lysine oxidation in mice” (The Journal of Biological Chemistry, 2022):

B1: glutaryl-CoA dehydrogenase (GCDH), endogenous, mouse liver mitochondria (enzyme, mouse (endogenous in liver mitochondria), UniProt Q60759 45-438, looked up)
chain: RPVFDWKDPLILEEQLTADEKLIRDTFRNYCQERLMSRILLANRNEVFHRDIVYEMGELGVLGPTIKGYGCAGVSSVAYGLLTRELERVDSGYRSMMSVQSSLVMHPIYTYGSEEQRQKYLPGLAKGELLGCFGLTEPNHGSDPGGMETRARHNPSNQSYTLSGTKTWITNSPVADLFIVWARCEDNCIRGFILEKGMRGLSAPRIEGKFSLRASATGMIIMDSVEVPEENVLPNVSSLAGPFGCLNTARYGITWGVLGAAEFCLHTARQYALDRIQFGVPLARNQLVQKKLADMLTEITLGLHACLQLGRLKDQDKATPEMVSMLKRNNCGKALDIARQARDILGGNGISDEYHVIRHAMNLEAVNTYEGTHDIHALILGRAITGIQAFTVGK
notes: glutaryl-CoA dehydrogenase, mouse, endogenous in liver mitochondria of SIRT5WT and SIRT5KO mice (GCDHKO mitochondria used to identify the band); Glutarylation state differs with genotype and feeding state (higher in starved SIRT5KO liver); also called GCDH tetramer; source: endogenous, mouse liver mitochondria solubilised in 2% n-dodecyl-β-D-maltoside
B2: human recombinant GCDH protein (hGCDH-6XHIS), unmodified (enzyme, UniProt Q92947 45-438, looked up)
chain: RPEFDWQDPLVLEEQLTTDEILIRDTFRTYCQERLMPRILLANRNEVFHREIISEMGELGVLGPTIKGYGCAGVSSVAYGLLARELERVDSGYRSAMSVQSSLVMHPIYAYGSEEQRQKYLPQLAKGELLGCFGLTEPNSGSDPSSMETRAHYNSSNKSYTLNGTKTWITNSPMADLFVVWARCEDGCIRGFLLEKGMRGLSAPRIQGKFSLRASATGMIIMDGVEVPEENVLPGASSLGGPFGCLNNARYGIAWGVLGASEFCLHTARQYALDRMQFGVPLARNQLIQKKLADMLTEITLGLHACLQLGRLKDQDKAAPEMVSLLKRNNCGKALDIARQARDMLGGNGISDEYHVIRHAMNLEAVNTYEGTHDIHALILGRAITGIQAFTASK
notes: hGCDH-6XHIS 'modified from UniProtKB - Q92947'; printed residue numbers count on the full-length human GCDH protein; also called recombinant human GCDH; unmodified GCDH
B3: chemically glutarylated human recombinant GCDH (glutaryl-GCDH) (enzyme, UniProt Q92947 45-438, looked up)
chain: B2 chain
modifications: glutaryl-lysine by chemical glutarylation: 10 sites found; heavily glutarylated K163, K170, K202, K240, K253, K357, K371, K377 (numbers of full-length human GCDH)
notes: as the chain of m2, chemically glutarylated; printed residue numbers count on the full-length human GCDH protein; also called glutarylated GCDH; modified GCDH
B4: chemically succinylated human recombinant GCDH (succinyl-GCDH) (enzyme, UniProt Q92947 45-438, looked up)
chain: B2 chain
modifications: succinyl-lysine by chemical succinylation: 11 sites found (shown in Fig. S3D, not given)
notes: as the chain of m2, chemically succinylated; printed residue numbers count on the full-length human GCDH protein; also called succinylated GCDH; modified GCDH

Experiments:
[1] = target: the molecule itself; test: native gel or EMSA; BN-PAGE (NativePAGE 4-16% Bis-Tris) of liver mitochondria solubilised in 2% n-dodecyl-β-D-maltoside, 0.5% G-250; immunoblot for GCDH; SIRT5WT and SIRT5KO mice, fed or 24 h fasted; GCDHKO mitochondria as control for the band
[2] = target: the molecule itself; test: SEC; Superdex 200 Increase 10/300 GL, 25 mM Hepes pH 7.8, 30 mM NaCl, 0.75 ml/min; column calibrated with standard proteins; comparison of unmodified and modified GCDH told as data not shown

Protein | stoichiometry N [1] | stoichiometry N [2]
B1 | 4 | –
B2 | – | 4
B3 | – | 4
B4 | – | 4
